Measurements from patent US20260242839A1, “GLYCOSIDE PRODUCT BIOSYNTHESIS AND RECOVERY” (Manus Bio Inc., priority 2023, published 2026).

Legend:
Assay type in all cases: cell-based, E. coli
steviol glycoside [1] = test: steviol glycoside bioconversion with complemented sucrose synthases in chassis strain; settings: chassis strain with UGT SEQ ID NOS: 15 and 25, stevia leaf extract, glucose fed, 37° C., 48 hr, FIG. 3
Text: Strains were created that expressed candidate sucrose synthase enzymes, which may improve UDP-glucose availability when fed sucrose. Expression of a sucrose synthase enables splitting of sucrose into fructose and glucose. Glucose can be funneled towards UDP-glucose biosynthesis. […] Genes were complemented on plasmid. Fold improvement is with respect to total steviol glycoside conversion. Stevia leaf extract, sucrose, and glucose were fed to the bioconversion strains. Bioconversion took place at 37° C. for 48 hr. Data were quantified by reverse phase LC DAD to quantify conversion of steviol glycosides.

Mog. IIE or Mog. IE = test: branched glycosylation reactions by cells expressing UGT enzymes; settings: Mog. IIE or Mog. IE fed; 37° C., 48 hr; LC-MS/MS
Experimental: Mog. IIE or Mog. IE was fed to cells expressing various UGT enzymes. Reactions were incubated at 37° C. for 48 hr. Products were quantified by LC-MS/MS with authentic standards of each compound. “Indirect” evidence means that consumption of substrate was observed.

Mog. II-E = test: production of Mog.III or siamenoside from Mog. II-E; settings: 37° C., 48 hr; FIG. 19
Experimental: II-E. In the experiment, engineered E. coli strains expressing UGT enzymes SEQ ID NO: 72, SEQ ID NO: 54 or SEQ ID NO: 13 were grown in fermentation media containing Mog. II-E at 37° C. for 48 hr. Products were quantified by LCMS/MS with authentic standards of each compound. […] IIE to Mog.III.

steviol glycoside [2] = test: steviol glycoside bioconversion with overexpressed genes complemented on plasmid; settings: chassis strain with UGT SEQ ID NOS: 14 and 24; stevia leaf extract and glucose fed; 37° C., 48 hr; FIG. 2
Experimental: Other bacterial genes were overexpressed, and bioconversion tested as compared to the chassis strain expressing UGT enzymes of SEQ ID NOS: 14 and 24. […] Fold improvement is with respect to total steviol glycoside conversion. Stevia leaf extract and glucose were fed to the bioconversion strains. Bioconversion took place at 37° C. for 48 hr. Data were quantified by reverse phase LC DAD to quantify conversion of steviol glycosides.

mogrol [3] = test: primary glycosylation at C3 and C24 hydroxyls of mogrol by cells expressing UGT enzymes; settings: mogrol fed; 37° C., 48 hrs; LCMS/MS
Experimental: Specifically, mogrol was fed to cells expressing various UGT enzymes. Reactions were incubated at 37° C. for 48 hrs. Products were quantified by LCMS/MS with authentic standards of each compound.

mogrol [4] = test: bioconversion of mogrol into mogroside intermediates; settings: 96-well plates, 48 hours, in excess of empty vector control; FIG. 17A
Experimental: The engineered bacterial strains described herein can be used for the glycosylation of a variety of substrates, including but not limited to terpenoid glycosides. In some aspects, the invention identifies UGT enzymes that are active on the mogrol or mogroside scaffolds. FIGS. 17A and B show the bioconversion of mogrol into mogroside intermediates. Engineered E. coli strains (chassis strain) expressing UGT enzymes were incubated in 96-well plates with mogrol. Product formation was examined after 48 hours. Reported values are those in excess of the empty vector control. Products were measured on LC-MS/MS with authentic standards. […] IE and/or Mog. IIE formed.

Mog. IE = test: bioconversion of Mog. IE into Mog. IIE; settings: 96-well plates, 37° C., 48 hours; FIG. 18B
Experimental: IE (FIG. 18B) into Mog. IIE. In the experiment, engineered E. coli chassis strains expressing UGT enzymes, SEQ ID NO: 84, SEQ ID NO: 71, or SEQ ID NO: 33 were incubated in fermentation media containing Mog. IA (FIG. 18A) or Mog. IE (FIG. 18B) in 96-well plates at 37° C. Product formation was examined after 48 hours. Products were measured on LC-MS/MS with authentic standards. The values of Mog. IIE levels in excess of the empty vector control were calculated. […] IE into Mog. IIE.

**Q.** How did the “improvement of total steviol glycoside conversion by sucrose synthase” value (“improvement … by sucrose synthase” below) (steviol glycoside [1]) turn out when “SEQ ID NO: 2: sucrose synthase, Solanum tuberosum (StSus2)” was run?
**A.** dramatic improvements in glycosylation

**Q.** Which “improvement … by sucrose synthase” value (steviol glycoside [1]) does the source give for “SEQ ID NO: 3: sucrose synthase, Solanum tuberosum (StSus2_S11E)” here?
**A.** dramatic improvements in glycosylation

**Q.** Which “improvement … by sucrose synthase” value (steviol glycoside [1]) does the source give for “SEQ ID NO: 6: sucrose synthase, Arabidopsis thaliana (AtSus1)” here?
**A.** dramatic improvements in glycosylation

**Q.** “SEQ ID NO: 7: sucrose synthase, Arabidopsis thaliana (AtSus3)” was tested. Which “improvement … by sucrose synthase” value (steviol glycoside [1]) did it give?
**A.** dramatic improvements in glycosylation

**Q.** Which “improvement … by sucrose synthase” value (steviol glycoside [1]) does the source give for “SEQ ID NO: 8: sucrose synthase, Vigna radiate (VrSS1)” here?
**A.** dramatic improvements in glycosylation

**Q.** How did the “improvement … by sucrose synthase” value (steviol glycoside [1]) turn out when “SEQ ID NO: 9: sucrose synthase, Vigna radiate (VrSS1_S11E)” was run?
**A.** dramatic improvements in glycosylation

**Q.** With “SEQ ID NO: 10: sucrose synthase, Glycine Max (GmSS)” as the molecule, how does the “improvement … by sucrose synthase” value (steviol glycoside [1]) read?
**A.** dramatic improvements in glycosylation

**Q.** How did the “improvement … by sucrose synthase” value (steviol glycoside [1]) turn out when “SEQ ID NO: 11: sucrose synthase, Glycine Max (GmSS_S11E)” was run?
**A.** dramatic improvements in glycosylation

B1: SEQ ID NO: 13: Synthetic UGT enzyme (MbUGT1,2.2) (protein)
chain: MATKGSSGMSLAERFWLTLSRSSLVVGRSCVEFEPETVPLLSTLRGKPITFLGLMPPLHEGRREDGEDATVRWLDAQPAKSVVYVALGSEVPLGVEKVHELALGLELAGTRFLWALRKPTGVSDADLLPAGFEERTRGRGVVATRWVPQMSILAHAAVGAFLTHCGWNSTIEGLMFGHPLIMLPIFGDQGPNARLIEAKNAGLQVARNDGDGSFDREGVAAAIRAVAVEEESSKVFQAKAKKLQEIVADMACHERYIDGFIQQLRSYKDDSGYSSSYAAAAGMHVVICPWLAFGHLLPCLDLAQRLASRGHRVSFVSTPRNISRLPPVRPALAPLVAFVALPLPRVEGLPDGAESTNDVPHDRPDMVELHRRAFDGLAAPFSEFLGTACADWVIVDVFHHWAAAAALEHKVPCAMMLLGSAEMIASIADERLEHAETESPAAAGQGRPAAAPTFEVARMKLIR
**Q.** What does the source list for B1?
**A.** C3 1-2 (Mog. IIE or Mog. IE): Yes; C3 1-6 (Mog. IIE or Mog. IE): Yes; C24 1-2 (Mog. IIE or Mog. IE): Yes; C24 1-6 (Mog. IIE or Mog. IE): Yes; bioconversion of Mog. IIE to Mog.III (Mog. II-E): able to catalyze bioconversion of Mog. IIE to Mog.III; production of siamenoside from Mog. II-E (Mog. II-E): production of substantial amounts of siamenoside

B2: cmk: E. coli cmk (cytidylate kinase), complemented on plasmid (protein, listed as Escherichia coli)
chain: MTAIAPVITIDGPSGAGKGTLCKAMAEALQWHLLDSGAIYRVLALAALHHHVDVASEDALVPLASHLDVRFVSTNGNLEVILEGEDVSGEIRTQEVANAASQVAAFPRVREALLRRQRAFRELPGLIADGRDMGTVVFPDAPVKIFLDASSEERAHRRMLQLQEKGFSVNFERLLAEIKERDDRDRNRAVAPLVPAADALVLDSTTLSIEQVIEKALQYARQKLALA
**Q.** For B2, which “improvement of total steviol glycoside conversion by gene complementation” value (steviol glycoside [2]) is on record?
**A.** improved overall glycosylation

B3: SEQ ID NO: 54: UGT enzyme (Ziziphus jujube) (protein, listed as Ziziphus jujuba)
chain: MMERQRSIKVLMFPWLAHGHISPFLELAKRLTDRNFQIYFCSTPVNLTSVKPKLSQKYSSSIKLVELHLPSLPDLPPHYHTTNGLALNLIPTLKKAFDMSSSSFSTILSTIKPDLLIYDFLQPWAPQLASCMNIPAVNFLSAGASMVSFVLHSIKYNGDDHDDEFLTTELHLSDSMEAKFAEMTESSPDEHIDRAVTCLERSNSLILIKSFRELEGKYLDYLSLSFAKKVVPIGPLVAQDTNPEDDSMDIINWLDKKEKSSTVFVSFGSEYYLTNEEMEEIAYGLELSKVNFIWVVRFPLGQKMAVEEALPKGFLERVGEKGMVVEDWAPQMKILGHSSIGGFVSHCGWSSLMESLKLGVPIIAMPMQLDQPINAKLVERSGVGLEVKRDKNGRIEREYLAKVIREIVVEKARQDIEKKAREMSNIITEKGEEEIDNVVEELAKLCGM
**Q.** With B3 as the molecule, how does the “C3 1-2” value (Mog. IIE or Mog. IE) read?
**A.** No

**Q.** And the “C3 1-6” value (Mog. IIE or Mog. IE)?
**A.** Yes

**Q.** What about the “C24 1-2” value (Mog. IIE or Mog. IE) of the same molecule?
**A.** No

**Q.** And the “C24 1-6” value (Mog. IIE or Mog. IE)?
**A.** Yes

**Q.** And the “bioconversion of Mog. IIE to Mog.III” value (Mog. II-E)?
**A.** able to catalyze bioconversion of Mog. IIE to Mog.III

B4: SEQ ID NO: 72: HvUGT B1 (Hordeum vulgare subsp. Vulgare) (protein)
chain: MAQAESERMRVVMFPWLAHGHINPYLELAKRLIASASGDHHLDVVVHLVSTPANLAPLAHHQTDRLRLVELHLPSLPDLPPALHTTKGLPARLMPVLKRACDLAAPRFGALLDELCPDILVYDFIQPWAPLEAEARGVPAFHFATCGAAATAFFIHCLKTDRPPSAFPFESISLGGVDEDAKYTALVTVREDSTALVAERDRLPLSLERSSGFVAVKSSADIERKYMEYLSQLLGKEIIPTGPLLVDSGGSEEQRDGGRIMRWLDGEEPGSVVFVSFGSEYFMSEHQMAQMARGLELSGVPFLWVVRFPNAEDDARGAARSMPPGFEPELGLVVEGWAPQRRILSHPSCGAFLTHCGWSSVLESMAAGVPMVALPLHIDQPLNANLAVELGAAAARVKQERFGEFTAEEVARAVRAAVKGKEGEAARRRARELQEVVARNNGNDGQIATLLQRMARLCGKDQAVPN
modifications: Hordeum vulgare
**Q.** B4 was tested. Which “C3 1-2” value (Mog. IIE or Mog. IE) did it give?
**A.** No

**Q.** What about the “C3 1-6” value (Mog. IIE or Mog. IE) of the same molecule?
**A.** Yes

**Q.** What about the “C24 1-2” value (Mog. IIE or Mog. IE) of the same molecule?
**A.** No

**Q.** And the “C24 1-6” value (Mog. IIE or Mog. IE)?
**A.** No

**Q.** And the “bioconversion of Mog. IIE to Mog.III” value (Mog. II-E)?
**A.** able to catalyze bioconversion of Mog. IIE to Mog.III

B5: SEQ ID NO: 33: SgUGT720-269-1 (Siraitia grosvenorii) (protein)
chain: MEDRNAMDMSRIKYRPQPLRPASMVQPRVLLFPFPALGHVKPFLSLAELLSDAGIDVVFLSTEYNHRRISNTEALASRFPTLHFETIPDGLPPNESRALADGPLYFSMREGTKPRFRQLIQSLNDGRWPITCIITDIMLSSPIEVAEEFGIPVIAFCPCSARYLSIHFFIPKLVEEGQIPYADDDPIGEIQGVPLFEGLLRRNHLPGSWSDKSADISFSHGLINQTLAAGRASALILNTFDELEAPFLTHLSSIFNKIYTIGPLHALSKSRLGDSSSSASALSGFWKEDRACMSWLDCQPPRSVVFVSFGSTMKMKADELREFWYGLVSSGKPFLCVLRSDVVSGGEAAELIEQMAEEEGAGGKLGMVVEWAAQEKVLSHPAVGGFLTHCGWNSTVESIAAGVPMMCWPILGDQPSNATWIDRVWKIGVERNNREWDRLTVEKMVRALMEGQKRVEIQRSMEKLSKLANEKVVRGINLHPTISLKKDTPTTSEHPRHEFENMRGMNYEMLVGNAIKSPTLTKK
**Q.** How did the “C3 O-Glucosylation” value (mogrol [3]) turn out when B5 was run?
**A.** Yes

**Q.** And the “C24 O-Glucosylation” value (mogrol [3])?
**A.** Yes

**Q.** And the “product formation from mogrol” value (mogrol [4])?
**A.** largely produced Mog.IA from mogrol

**Q.** And the “bioconversion of Mog. IE into Mog. IIE” value (Mog. IE)?
**A.** able to catalyze the bioconversion of Mog. IE into Mog. IIE
